This is an account of results in PMC3524506.

The test system of the data set is OmpR-P-His6 (phosphorylated) (Yersinia enterocolitica O9 Ye9?). Description: EMSA. As to conditions: 40 mM Tris-HCl pH 8.0, 100 mM KCl, 10 mM MgCl2, 5% glycerol, room temperature 30 min, scale: fold lower minimum binding amount than non-phosphorylated OmpR.

inv promoter fragment 553 bp came in with a binding signal of 3.
